Reference: publication PMC10415118

What was measured:
Assay in all cases: purified protein
purified protein [1] = substrate: Nc1ccn([C@@H]2O[C@H](CO)[C@@H](O)[C@H]2O)c(=O)n1; conditions: 30 °C, C 0.1-10 mM
purified protein [2] = substrate: Cc1cn([C@@H]2O[C@H](CO)[C@@H](O)[C@H]2O)c(=O)nc1N; conditions: 30 °C, 5mC 1-200 mM
purified protein [3] = substrate: CO[C@@H]1[C@H](O)[C@@H](CO)O[C@H]1n1ccc(N)nc1=O; conditions: 30 °C, 2OmC 1-200 mM
purified protein [4] = substrate: Cc1cn([C@H]2C[C@H](O)[C@@H](CO)O2)c(=O)nc1N; conditions: 30 °C, 5mdC 1-100 mM
purified protein [5] = substrate: Nc1ccn([C@H]2C[C@H](O)[C@@H](CO)O2)c(=O)n1; conditions: 30 °C, dC 0.05-5 mM

B1: CDA (AtCDA; CYTIDINE DEAMINASE; CDA-Strep) (Arabidopsis thaliana) (protein)
chain: MDKPSFVIQSKEAESAAKQLGVSVIQLLPSLVKPAQSYARTPISKFNVAVVGLGSSGRIFLGVNVEFPNLPLHHSIHAEQFLVTNLTLNGERHLNFFAVSAAPCGHCRQFLQEIRDAPEIKILITDPNNSADSDSAADSDGFLRLGSFLPHRFGPDDLLGKDHPLLLESHDNHLKISDLDSICNGNTDSSADLKQTALAAANRSYAPYSLCPSGVSLVDCDGKVYRGWYMESAAYNPSMGPVQAALVDYVANGGGGGYERIVGAVLVEKEDAVVRQEHTARLLLETISPKCEFKVFHCYEA
Km (purified protein [1]): 0.82 ± 0.15 mM
kcat (purified protein [1]): 29.4 ± 1.65 s⁻¹
kcat/Km (purified protein [1]): 35900 M⁻¹ s⁻¹
Km (purified protein [2]): 8.05 ± 0.96 mM
kcat (purified protein [2]): 35.4 ± 1.04 s⁻¹
kcat/Km (purified protein [2]): 4400 M⁻¹ s⁻¹
Km (purified protein [3]): 8.34 ± 1.12 mM
kcat (purified protein [3]): 35.5 ± 1.12 s⁻¹
kcat/Km (purified protein [3]): 4300 M⁻¹ s⁻¹
Km (purified protein [4]): 3.92 ± 0.61 mM
kcat (purified protein [4]): 54.1 ± 1.68 s⁻¹
kcat/Km (purified protein [4]): 13800 M⁻¹ s⁻¹
Km (purified protein [5]): 0.28 ± 0.05 mM
kcat (purified protein [5]): 18.1 ± 0.66 s⁻¹
kcat/Km (purified protein [5]): 64800 M⁻¹ s⁻¹
